System: MS2 coat protein
Assay: apparent KD of MS2 coat protein; designed switch direction (-1 OFF switch, 1 ON switch): -1; higher = weaker reporter binding
Procedure, shortened: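 Designed RNA switches with common flanks were transcribed on Illumina chips by stalled E. coli RNA polymerase and titrated with SNAP-549-labelled MS2 coat protein, from 0.7 or 1.5 nM doubling to 3 µM, in Tris-HCl pH 7.5 buffer with KCl, MgCl2, BSA, DTT, tRNA and Tween-20. Steps lasted 0.8–1.5 h (lowest) to 10–20 min (highest). Titrations ran without input, with 200 uM small-molecule ligand, or with an oligonucleotide input. Normalised cluster fluorescence was curve-fitted, and apparent KD is the per-design median over clusters.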

[1] = Eterna round: R95, input ligand: FMN 200 uM
[2] = Eterna round: R95, input ligand: microRNA oligo, concentration not stated
[3] = Eterna round: R95, input ligand: none
[4] = input ligand: microRNA oligo, concentration not stated

Sequence | apparent KD of MS2 coat protein [1] | apparent KD of MS2 coat protein [2] | apparent KD of MS2 coat protein [3] | apparent KD of MS2 coat protein (input ligand: FMN 200 uM) | apparent KD of MS2 coat protein (input ligand: none) | apparent KD of MS2 coat protein [4]
CCGGAAGUACAGGAUAUCGUAACGGAUACGUUACGAGAAGGGUAUACAUGAGGAUCACCCAUGUGUCCUACCGG [Mat - Exclusion 6 - Eli Mod - D95] (puzzle: Exclusion 6) | 27.8 nM | 26 nM | 27.1 nM | – | – | –
AAGUACCGUCACGAUAGUGAUGGUACAACAAGCAAAUACACAUGAGGAUCACCCAUGUCCUCUUUUGCUCGUCUUGU [Sensor 3 - 0] (puzzle: Sensor v3, turn-off variant 2) | 674 nM | 236 nM | 767 nM | – | – | –
CUUUUGUGAGGAUAUCUGGCUUCGAUCGUGAGAUCGAGGCUAGAGAAGGCACAUGAGGAUCACCCAUGUUCCUU [jl-ex4-4.05 salish99 mod] (Eterna round: R97, puzzle: Exclusion 4) | – | – | – | 66.1 nM | 19.9 nM | –
AUAAGCUUUGAGAUCCUUAACAUGAGGAUCACCCAUGUUCGUCUUAUGAUGGUCUGAUCCCUGAGGAUCGGACCGUA [Mat - Sensor v3 - turn-off var 1 - JL Mod - D1] (puzzle: Sensor v3, turn-off variant 1) | 146 nM | 28.4 nM | 186 nM | – | – | –
ACAUGAGGCGAAGGAUAUCUUUAGAGGAUUACCAGAGAAGGUCGACAUGAGGAUCACCCAUGUACAUGAGGGUCUUGAAUGUUA [9th something] (Eterna round: R96, puzzle: Exclusion NG 1) | – | – | – | 245 nM | 250 nM | 199 nM
UGCCUAGCAGGAUAUGCCCGGGAUAACAUGAGGAUCACCCAUGUGACCGAUUGAUAUCCUGCAGAAGGGCUAGGGA [JL-EX5-4.10 ViennaUCT mod] (Eterna round: R97, puzzle: Exclusion 5) | – | – | – | 62.1 nM | 16.7 nM | –
UUGGUUAUCUAUGGGAGUAACAUGAGGAUCACCCAUGUAUGUCUUGUUUUUUGUUCGUCAUAGGCCUUUUGUUUGGA [JR_SV3TOV1_Sub024] (puzzle: Sensor v3, turn-off variant 1) | 28.6 nM | 35 nM | 29.8 nM | – | – | –
CUGCUGGAGCGUUGCUUUGGUCGUACAUGAGGAUCACCCAUGUAGGAUAUGGUAAAAUUUGCUUGCUAGAAGGAUAGAGUGGUC [salish99_ExNG3_r04_613] (Eterna round: R96, puzzle: Exclusion NG 3) | – | – | – | 117 nM | 64.6 nM | 63.5 nM
AGCUGUGGCCGAGGAUAUCUAACAAUCCAAACCGAAAUAUAAUCGGACAUGAGGAUCACCCAUGUAGAGAAGGCGGUCUCAGCA [Eli eng2 - 075] (Eterna round: R96, puzzle: Exclusion NG 2) | – | – | – | – | – | 32.7 nM
UUAUUAUAUGAAGGAUAUACUUAACAUGAGGAUCACCCAUGUGGUGUUGUGAGUGAGUGAGUUUAGUAGAAGGUCAAUUAUUUU [JMF's solution 28] (Eterna round: R96, puzzle: Exclusion NG 2) | – | – | – | 833 nM | 335 nM | 287 nM
ACCUCUGAGGAGGAUAUACAGUGCGAAAGGACAGUAGAAGGCUUCACAUGAGGAUCACCCAUGUCGAAAAGUGA [EX6 #80] (Eterna round: R97, puzzle: Exclusion 6) | – | – | – | 127 nM | 92.6 nM | –
GCGGGCUUGGGAGGAUAUACAUGAGGAUCACCCAUGUGUGUUCGGGCUGGCCGGUUUGGGCGCGUGUAGAAGGCUCGGGUUUGC [less GC, A 14%] (Eterna round: R96, puzzle: Exclusion NG 2) | – | – | – | 25.1 nM | 16.1 nM | 13.4 nM
GAGUGACAUGAGGAUCACCCAUGUGAGGAUAUGCGACGGACCAAAUUAACAAUAGAAGGCAGAAGGCGCAUAAA [Exclusion 1 V10] (puzzle: Exclusion 1) | 26.9 nM | 33.1 nM | 31.1 nM | – | – | –
UCAAGUAUGUAGGAUAUCGAUGUCUACGGACAUCGAGAAGGACGUACAUGAGGAUCACCCAUGUAACUUGCAUG [Exclusion 6 - B - 10:d] (puzzle: Exclusion 6) | 37.2 nM | 79.4 nM | 108 nM | – | – | –
CAGUACUGAGGAUAUACAUGAGGAUCACCCAUGUGUUCCAGCUAGGAAACUUGCAAAAGUAGAAGGCAGUACUG [salish99_ex3_r3_093x] (puzzle: Exclusion 3) | – | 11.9 nM | – | – | – | –
GCAUCCAUAGUGAGGAUAUACCUCUGGAUACAUAGGUAGAAGGCACAUGAGGAUCACCCAUGUUCUUAGGAUGC [Fiskers BMX 4 - 34] (puzzle: Brourd's mod of Exclusion 4) | – | 23.9 nM | – | – | – | –
UUUUACAUAGGAUAUAGUUUGUUGUACAUGAGGAUCACCCAUGUUUUUGGUUGUGCUUUUCUAGAAGGAUGUUUCU [JR_E5_Sub015] (puzzle: Exclusion 5) | – | 43.8 nM | – | – | – | –

Sequence | apparent KD of MS2 coat protein [1] | apparent KD of MS2 coat protein [2] | apparent KD of MS2 coat protein [3] | apparent KD of MS2 coat protein (input ligand: FMN 200 uM) | apparent KD of MS2 coat protein (input ligand: none) | apparent KD of MS2 coat protein [4]
GAAGAAGAGAGAAUAGAAAACAUGAGGAUCACCCAUGUGAGAAGAUGAGGGUGUAAUAGGCUUUUUGCUCGUCUUAU (puzzle: Sensor v3, turn-off variant 1) | 42.7 nM | 94.4 nM | 56 nM | – | – | –
ACAUGAGGAUCACCCAUGUCAGGUGGGUCCUCUCCGGCUGUUGAGGAUAUAGUCCGGUAUCCGCGCUAGAAGGUGAGGGCCGGC [Aenatbe mod 17] (Eterna round: R96, puzzle: Exclusion NG 3) | – | – | – | 29.8 nM | 33.7 nM | 31.1 nM
AGUUGCGCAGGAUAUACAUGAGGAUCACCCAUGUGAGAGAAAUAAGUGAGGAAGAAAAGUAGAAGGGCGUGACA [Mat - Exclusion 3 - Mod of Salish D74] (puzzle: Exclusion 3) | 236 nM | 40.6 nM | 47.1 nM | – | – | –
AUUGAUAGCACAGGAUAUUGAGAUUUGAAUUGACAAGAAGGGUGUACAUGAGGAUCACCCAUGUAAUGGUUGCCUCGUUGAUUA [JR_ExcNG1_Sub004] (Eterna round: R96, puzzle: Exclusion NG 1) | – | – | – | 1070 nM | 148 nM | 125 nM
AAACUGAGGCAAAGCUUUAGUCGUACAUGAGGAUCACCCAUGUAGGAUAUGGUAGGCUUUGCUUACCAGAAGGACAGAGUGAUC [Mat - Exclusion NG 3 - Mod of JL - D56] (Eterna round: R96, puzzle: Exclusion NG 3) | – | – | – | 235 nM | 110 nM | 103 nM
AGUUAGAAAGGAUAUACAUGAGGAUCACCCAUGUAGGGCUGUUAGAGACCCGGUCUCUGUAGAAGGUUCGAACU [EX3 C.16] (Eterna round: R97, puzzle: Exclusion 3) | – | – | – | 30.8 nM | 28.9 nM | –
ACUUAUUGAGGAUAUACAUUAAAUUACAUGAGGAUCACCCAUGUUCUUCAAUGUAUAUAUGUAGAAGGCAGAAGAU [Mat - Exclusion 5 - JL Mod - D20] (Eterna round: R97, puzzle: Exclusion 5) | – | – | – | 18.2 nM | 14.4 nM | –
AGAACUCUAGUAGGAUAUGUCGGAUAUGUUGUUGAGGUUCACCCAACGACGUCAAUGACAGAAGGACAGAAGGACUCCUGUUCA [pwkr exNG2 2xFMN 1xF5.8] (Eterna round: R96, puzzle: Exclusion NG 2) | – | – | – | 1020 nM | 711 nM | 3670 nM
CAAUAACAAGCGAGAUCCUACAUGAGGAUCACCCAUGUGCUCGUCUUAUAAAGUACUAUCACGAAAGUGAUAGUACA [Mat - Sensor v3 - turn-off var 1 - Eli Mod - D63] (puzzle: Sensor v3, turn-off variant 1) | 19.6 nM | 34 nM | 14.9 nM | – | – | –
CUGCUGGAGCUUUGCUUUGGUCGUACAUGAGGAUCACCCAUGUAGGAUAUGGUAAGAUUUGCUUGCUAGAAGGAUAGAGUGGUC [salish99_ExNG3_r04_611] (Eterna round: R96, puzzle: Exclusion NG 3) | – | – | – | 80.9 nM | 49.7 nM | 78.2 nM
GGUACUAUCACCUGAGUGGUAGUGCUAUAAGCUUGUGAUACAUGAGGAUCACCCAUGUCCUCAUUUGCUCGUCUUAU [JL-sv3-2.29 JL mod] (puzzle: Sensor v3, turn-off variant 2) | 602 nM | 610 nM | 824 nM | – | – | –
GAUCUGUAAGGAUAUCGUGCAAGUUUCAAAAGAGGCUUGUGCGAGAAGGUACAUGAGGAUCACCCAUGUAGGUU [Omei Ex4 B15] (Eterna round: R97, puzzle: Exclusion 4) | – | – | – | 52.6 nM | 40.1 nM | –
UUAUUGGUAGUGAGGAUAUCGGAUAGAUAGAUAUUCGAGAAGGCACAUGAGGAUCACCCAUGUAAGAUUGGAAA [JR_BMEx4_Sub045] (Eterna round: R97, puzzle: Brourd's mod of Exclusion 4) | – | – | – | 155 nM | 38.5 nM | –
GACUAAACACGAGGAUAUGCCUGGGAAGAACAGGCAGAAGGCGUGACAUGAGGAUCACCCAUGUAGCCGGGCUAUUCUCGUACG [Tirearerar] (Eterna round: R96, puzzle: Exclusion NG 1) | – | – | – | 30.8 nM | 30.3 nM | 24.7 nM
UUUAUAUAGUAAGGAUAUGUAUUAUGUUUAUCAACAGAAGGUACUGACAUGAGGAUCACCCAUGUUUUAGUGUGGGCAUGUAGU [JMF's solution 95] (Eterna round: R96, puzzle: Exclusion NG 1) | – | – | – | – | – | 181 nM
GAAAACGCAGGAUAUUAAUACUUAUACAUGAGGAUCACCCAUGUUUAUUGGGAUUAAGAAUAAGAAGGGCGAUGAA [EX5 #1] (Eterna round: R97, puzzle: Exclusion 5) | – | – | – | 30.8 nM | 24 nM | –

From the supplement of paper PMC9170038
